Laboratory results taken from patent US20260234592.
Numbering of substitutions follows the chain as printed. Names may count otherwise. “Also recorded” adds a separate entry of the source.

B1: R49A_L76P variant TEV protease (triple variant further comprising R49A and L76P), expressed in vivo (protein)
chain: GESLFKGPRDYNPISSTICHLTNESDGHTTSLYGIGFGPFIITNKHLFARNNGTLVVQSLHGVFKVKNTTTLQQHPIDGRDMIIIRMPKDFPPFPQKLKFREPQREERICLVTTNFQTKSMSSMVSDTSCTFPSGDGIFWKHWIQTKDGQCGSPLVSTRDGFIVGIHSASNFTNTNNYFTSVPKNFMELLTNQEAQQWVSGWRLNADSVLWGGHKVFMVKPEEPFQPVKEATQLMNE
B2: R49I_L76P variant TEV protease (triple variant further comprising R49I and L76P), expressed in vivo (protein)
chain: B1 chain with A49I
B3: R49G_L76P variant TEV protease (triple variant further comprising R49G and L76P), expressed in vivo (protein)
chain: B1 chain with A49G
B4: R49L_L76P variant TEV protease (triple variant further comprising R49L and L76P), expressed in vivo (protein)
chain: B1 chain with A49L
B5: R49V variant TEV protease (N-terminal His tag; R49V, L56V, S135G, S219V) (protein)
chain: GHHHHHHHGESLFKGPRDYNPISSTICHLTNESDGHTTSLYGIGFGPFIITNKHLFVRNNGTLVVQSLHGVFKVKNTTTLQQHLIDGRDMIIIRMPKDFPPFPQKLKFREPQREERICLVTTNFQTKSMSSMVSDTSCTFPSGDGIFWKHWIQTKDGQCGSPLVSTRDGFIVGIHSASNFTNTNNYFTSVPKNFMELLTNQEAQQWVSGWRLNADSVLWGGHKVFMVKPEEPFQPVKEATQLMNE
B6: L76P variant TEV protease (N-terminal His tag; L56V, L76P, S135G, S219V) (protein)
chain: B5 chain with V57R, L84P
B7: R49V_L76P variant TEV protease (N-terminal His tag; R49V, L56V, L76P, S135G, S219V) (protein)
chain: B5 chain with L84P
B8: control TEV protease (TEV protease triple variant L56V, S135G, S219V with N-terminal His tag) (protein)
chain: B5 chain with V57R
B9: R49F_L76P variant TEV protease (N-terminal His tag; R49F, L56V, L76P, S135G, S219V) (protein)
chain: B5 chain with V57F, L84P

Legend:
[1] = target: CBD-TEVrs-bglA (N-terminal His-tagged chitin binding domain, TEVrs ENLYFQG, 6-phospho-β-glucosidase A)
[2] = target: MBP5-TEV-paramyosin ΔSal (maltose binding protein domain and a paramyosin fragment linked by a TEV protease recognition sequence)

Protein | CBD-TEVrs-bglA cleavage over time at 30° C. [1] | CBD-TEVrs-bglA cleavage over time at 30° C. and 20° C. [1] | Slope of ln(1-(cleavage ratio)) against the concentration of TEV protease, 4° C., 18 hours [1] | substrate cleaved, 0° C., 18 hours [1] | substrate cleaved, 4° C., 18 hours [1] | protease concentration that reaches almost 100% cleavage, 4° C., 18 hours [1] | also measured
B1 | all variants performed better that the control |  |  |  |  |  | 
B2 | all variants performed better that the control |  |  |  |  |  | 
B3 | all variants performed better that the control |  |  |  |  |  | 
B4 | all variants performed better that the control |  |  |  |  |  | 
B5 |  | showed slightly weaker activity than control TEV protease | y = -11.281x - 0.2037 |  |  |  | Ratio kR49V/kcontrol = (kcat/KM)R49V/(kcat/KM)control [1]: 2
B6 |  | At both temperatures, the L76P variant showed higher activity than control TEV protease | y = -13.611x - 0.0596 | the L76P variant cleaved 75% of the substrate | the L76P variant cleaved 87% of the substrate |  | Ratio kL76P/kcontrol = (kcat/KM)L76P/(kcat/KM)control [1]: 1.7
B7 | all variants performed better that the control | the R49V_L76P variant showed higher activity than L76P variant | y = -11.117x - 0.0916 |  | R49V_L76P variant cleaved the substrate by 94% | the R49V_L76P variant reached almost 100% cleavage at 0.5 µM | Ratio kR49V-L76P/kcontrol = (kcat/KM)R49V-L76P/(kcat/KM)control [1]: 1.5
B8 |  |  |  | the control TEV protease cleaved 64% of the substrate | Control TEV protease cleaved the substrate by 73%; also recorded: the control TEV protease cleaved 77% of the substrate | 2 µM of the control TEV protease was needed to reach the same mark | 
B9 | all variants performed better that the control with the R49F_L76P variant (SEQ ID NO: 11) displaying the highest activity |  | y = -13.518x - 0.0413 | the R49F_L76P variant cleaved 86% of the substrate | the R49F_L76P variant cleaved 97% of the substrate | the R49F_L76P variant reached almost 100% cleavage at 0.5 µM | Ratio kR49F-L76P/kcontrol = (kcat/KM)R49F-L76P/(kcat/KM)control [1]: 2.6; cleavage of the substrate, 4° C., 1 hour [2]: The variant protease achieved 85% cleavage in just 1 hour at 4 °C; cleavage of the substrate, 4° C., 3 hours [2]: The variant TEV protease cleaved 98% of the substrate in 3 hours; cleavage of the substrate, 4° C., 5 hours [2]: 99% in 5 hours
